Target: the molecule itself

B1: AmpR effector-binding domain (protein)
chain: LLERFEGGHYRDVLTVGAVGTFTVGWLLPRLEDFQARHPFIDLRLSTHNNRVDIAAEGLDYAIRFGGGAWHGTEALALFEAPLTVLCCPEVAAQLHSPADLLQHTLLRSYRADEWPLWFQAAGLPAHAPLTRSIVFDTSLAMLEAARQGVGVALAPAAMFARQLASESIRRPFATEVSTGSYWLTRLQSRGETSAMLAFRGWLLEMAAVEARGR
  Kd: < 1000 nM

Reference: paper PMC5436579 (2017)
